In US20260116963A1 (GENERATE BIOMEDICINES, published 2026):
Changes are numbered by the printed parent chain.

T1: mouse IL-13 (mouse, UniProt P20109 19-131, limits assumed)
T1 construct: also called recombinant mouse IL-13
T1 sequence (looked up): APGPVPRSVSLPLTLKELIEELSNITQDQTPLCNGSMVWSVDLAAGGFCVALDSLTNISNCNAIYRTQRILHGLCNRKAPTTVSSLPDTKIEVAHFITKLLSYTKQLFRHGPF

B1: Ref3 (antibody, human IgG1, kappa)
heavy: QVTLRESGPALVKPTQTLTLTCTVSGFSLSAYSVNWIRQPPGKALEWLAMIWGDGKIVYNSALKSRLTISKDTSKNQVVLTMTNMDPVDTATYYCAGDGYYPYAMDNWGQGSLVTVSSASTKGPSVFPLAPSSKSTSGGTAALGCLVKDYFPEPVTVSWNSGALTSGVHTFPAVLQSSGLYSLSSVVTVPSSSLGTQTYICNVNHKPSNTKVDKRVEPKSCDKTHTCPPCPAPEFEGGPSVFLFPPKPKDTLYITREPEVTCVVVDVSHEDPEVKFNWYVDGVEVHNAKTKPREEQYNSTYRVVSVLTVLHQDWLNGKEYKCKVSNKALPASIEKTISKAKGQPREPQVYTLPPSREEMTKNQVSLTCLVKGFYPSDIAVEWESNGQPENNYKTTPPVLDSDGSFFLYSKLTVDKSRWQQGNVFSCSVMHEALHNHYTQKSLSLSPGK
light: DIVMTQSPDSLSVSLGERATINCRASKSVDSYGNSFMHWYQQKPGQPPKLLIYLASNLESGVPDRFSGSGSGTDFTLTISSLQAEDVAVYYCQQNNEDPRTFGGGTKVEIKRTVAAPSVFIFPPSDEQLKSGTASVVCLLNNFYPREAKVQWKVDNALQSGNSQESVTEQDSKDSTYSLSSTLTLSKADYEKHKVYACEVTHQGLSSPVTKSFNRGEC
B2: AbG (antibody, human IgG1, kappa)
heavy: B1 heavy with F27A, Y101F, F235L, E236L, S332P
light: B1 light with F36Y
notes: also called Antibody AbG
B3: AbA (antibody, human IgG1, kappa, V domains shown)
VH: QVTLRESGPALVKPTQTLTLTCTVSGFSLSAYSVNWIRQPPGKALEWLAMIWGDGKIVYNSALKSRLTISKDTSKNQVVLTMTNMDPVDTATYYCAGDGYYPYAMDNWGQGSLVTVSS
VL: DIVMTQSPDSLSVSLGERATINCRASKSVDSYGRSYMHWYQQKPGQPPKLLIYLASNLESGVPDRFSGSGSGTDFTLTISSLQAEDVAVYYCQQNNEDPRTFGGGTKVEIKR
B4: AbB (antibody, human IgG1, kappa, V domains shown)
VH: B3 VH with F27A
VL: B3 VL with S31Y, R34H
B5: AbC (antibody, human IgG1, kappa, V domains shown)
VH: B3 VH with N107Y
VL: B3 VL with S31Y, R34N
B6: AbD (antibody, human IgG1, kappa, V domains shown)
VH: B3 VH with F27S, I57V, Y101F
VL: B3 VL with R34N
B7: AbE (antibody, human IgG1, kappa, V domains shown)
VH: B3 VH with F27A, Y101F
VL: B3 VL with R34H, L54W
B8: AbF (antibody, human IgG1, kappa, V domains shown)
VH: B3 VH with F27A, A31R, G55A, Y101F
VL: B3 VL with K27E, R34N
B9: AbH (antibody, human IgG1, kappa, V domains shown)
VH: B3 VH with F27A, A31R
VL: B3 VL with R34N, L54R
B10: AbI (antibody, human IgG1, kappa, V domains shown)
VH: B3 VH with F27A, A31R, Y100F
VL: B3 VL with R34N
B11: AbJ (antibody, human IgG1, kappa, V domains shown)
VH: B3 VH with F27A, G55R, I57K, Y101F, N107L
VL: B3 VL with R34H, L54W
B12: AbK (antibody, human IgG1, kappa, V domains shown)
VH: B3 VH with F27S, A31R
VL: B3 VL with K27Q, R34N
B13: AbL (antibody, human IgG1, kappa, V domains shown)
VH: B3 VH with A31R
VL: B3 VL
B14: AbM (antibody, human IgG1, kappa, V domains shown)
VH: B3 VH with F27A, Y101F
VL: B3 VL with S31Y
B15: AbN (antibody, human IgG1, kappa, V domains shown)
VH: B3 VH with F27A
VL: B3 VL with K27E, S31Y, R34H
B16: AbO (antibody, human IgG1, kappa, V domains shown)
VH: B3 VH with F27Y, Y101F, N107V
VL: B3 VL with S31Y, R34H
B17: AbP (antibody, human IgG1, kappa, V domains shown)
VH: B3 VH with F27A, I57V, Y101F, N107H
VL: B3 VL with R34N, L54W
B18: Ref1 (antibody, human IgG1, kappa)
heavy: B1 heavy with F235L, E236L, S332P
light: B1 light
notes: hIgG1-YTE

The binders below were run against T2, human IL-13 (human, UniProt P35225 25-146, limits assumed) (assay: cell-based or functional assay).
T2 sequence (P35225 other isoform, or with tags, fused parts or gaps limits assumed): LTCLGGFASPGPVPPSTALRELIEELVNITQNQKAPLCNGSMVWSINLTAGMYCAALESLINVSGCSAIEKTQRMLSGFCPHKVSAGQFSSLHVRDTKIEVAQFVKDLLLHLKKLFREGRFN

| Binder | Mean IC50 (nM) Donor 1, Phospho-STAT6 assay in human CD14+ monocytes | Mean IC50 (nM) Donor 2, Phospho-STAT6 assay in human CD14+ monocytes | Mean IC50 (nM) Donor 3, Phospho-STAT6 assay in human CD14+ monocytes |
| --- | --- | --- | --- |
| B1 | 32.2 nM | 31.3 nM | 33.9 nM |

Molecular target: T2, human IL-13
Assay: cell-based or functional assay
Remark: another data set of the same source

| Binder | IC50, HEK-Blue IL-13Ra1/IL-4Ra STAT6-SEAP reporter assay |
| --- | --- |
| B2 | 0.174 µg/mL |
| B3 | 0.123 µg/mL |
| B4 | 0.132 µg/mL |
| B5 | 0.118 µg/mL |
| B6 | 0.161 µg/mL |
| B7 | 0.118 µg/mL |
| B8 | 0.126 µg/mL |
| B9 | 0.107 µg/mL |
| B10 | 0.223 µg/mL |
| B11 | 0.167 µg/mL |
| B12 | 0.172 µg/mL |
| B13 | 0.32 µg/mL |
| B14 | 0.136 µg/mL |
| B15 | 0.14 µg/mL |
| B16 | 0.165 µg/mL |
| B17 | 0.152 µg/mL |
| B18 | 0.143 µg/mL |

These binders were tested against T2, human IL-13 (assay: KinExA, 25 C).

| Binder | fold higher affinity than Ref2 |
| --- | --- |
| B2 | 40 fold |

What follows are binders tested against T2, human IL-13 (assay: SPR (Biacore 8K+), antibody captured on anti-human pAb CM4 chip, human IL-13 0.6-10 nM as analyte, 37 C, 1:1 fit).

| Binder | Kd | koff | kon |
| --- | --- | --- | --- |
| B3 | 0.0162 nM | 1.11e-05 s⁻¹ | 847000 M⁻¹ s⁻¹ |
| B4 | 0.0215 nM | 1.02e-05 s⁻¹ | 552000 M⁻¹ s⁻¹ |
| B5 | 0.0273 nM | 2.98e-05 s⁻¹ | 1.09e+06 M⁻¹ s⁻¹ |
| B18 | 0.0484 nM | 2.64e-05 s⁻¹ | 594000 M⁻¹ s⁻¹ |

The binders below were run against T2, human IL-13 (assay: SPR (Biacore 8K+), antibody captured on anti-human Fc CM4 chip, human IL-13 0.6-10 nM as analyte, 37 C, 1:1 fit).

| Binder | Kd | koff | kon |
| --- | --- | --- | --- |
| B2 | 0.0126 nM | 7.68e-06 s⁻¹ | 639000 M⁻¹ s⁻¹ |
| B18 | 0.0551 nM | 2.66e-05 s⁻¹ | 483000 M⁻¹ s⁻¹ |
| B1 | 0.0507 nM | 2.52e-05 s⁻¹ | 501000 M⁻¹ s⁻¹ |

The binders below were run against T2, human IL-13 (assay: SPR array (Carterra LSA), antibody captured on anti-human pAb HC30M chip, human IL-13 0.05-100 nM as analyte, 25 C, 1:1 fit).

| Binder | Kd |
| --- | --- |
| B2 | < 0.1 nM |
| B18 | < 0.1 nM |

What follows are binders tested against T2, human IL-13 (assay: SPR (Biacore 8K+), antibody captured, human IL-13 as analyte, 37 C; less than 5% decay in 5,400 s, KD estimated).

| Binder | Kd |
| --- | --- |
| B2 | < 0.015 nM |
| B6 | < 0.015 nM |
| B7 | < 0.015 nM |
| B8 | < 0.015 nM |
| B9 | < 0.015 nM |
| B10 | < 0.015 nM |
| B11 | < 0.015 nM |
| B12 | < 0.015 nM |
| B13 | < 0.015 nM |
| B14 | < 0.015 nM |
| B15 | < 0.015 nM |
| B16 | < 0.015 nM |
| B17 | < 0.015 nM |

The binders below were run against cynomolgus IL-13 (cynomolgus, UniProt Q0PW92 21-132) (assay: KinExA, solution equilibrium, free antigen captured on Ref1-coated beads, 25 C).
Sequence of cynomolgus IL-13 (Q0PW92 entry or part of it): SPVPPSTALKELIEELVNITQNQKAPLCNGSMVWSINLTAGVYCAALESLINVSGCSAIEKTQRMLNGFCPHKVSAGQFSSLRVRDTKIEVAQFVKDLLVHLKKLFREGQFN

| Binder | Kd | koff | kon |
| --- | --- | --- | --- |
| B2 | 0.00072 nM | 1.77e-06 s⁻¹ | 2.46e+06 M⁻¹ s⁻¹ |
| B18 | 0.00052 nM | 1.09e-06 s⁻¹ | 2.09e+06 M⁻¹ s⁻¹ |

These binders were tested against T2, human IL-13 in the same assay as above.

| Binder | Kd | koff | kon |
| --- | --- | --- | --- |
| B2 | 0.00023 nM | 4.8e-07 s⁻¹ | 2.06e+06 M⁻¹ s⁻¹ |
| B18 | 0.00613 nM | 9.37e-06 s⁻¹ | 1.53e+06 M⁻¹ s⁻¹ |

Each binder was assayed against T1, mouse IL-13 (assay: SPR (Biacore 8K+), antibody captured on anti-human IgG Fc chip, IL-13 as analyte, 25 C).

| Binder | binding result |
| --- | --- |
| B2 | no binding |
| B1 | no binding |
